The target of assay [1] is mouse cMET (recombinant) (mouse, UniProt P16056 25-929, limits assumed). Kind of assay: ELISA, antigen coated at 1 µg/mL, antibody titrated from 10 µg/mL. As to the method:
(§1) Specificity for EGFR and cMET species paralogs and closely related family members was determined by ELISA. Briefly, antigen solutions were prepared in PBS at 1 μg/mL and 50 microliters was coated onto half area ELISA assay plates. Plates were washed and blocked with 1% BSA in PBS containing 0.005% Tween-20 (PBS-T) for one hour at room temperature. […] Wells were incubated with 50 microliters of the indicated primary antibodies diluted in PBS-T in a 1:3 dilution series, starting at 10 μg/mL and ending at 0.002 μg/mL, except for the HER4 binding mAb control, MAB1131, for which the series started at 1 μg/mL. The wells were washed 4 times in PBS-T, then 50 μl of goat anti-human Fab HRP-labeled secondary antibody, diluted 1:5000 in PBS-T, was added to each well and incubated for one hour at room temperature. […] 50 microliters of TMB stop solution was added to all wells and the absorbance was read at 450 nm on a SpectraMax M5 microplate reader. Data were analyzed in the SoftMax Pro 5 software and plotted using GraphPad Prism 7 graphing software.
(§2) To determine the species cross reactivity, ELISA assays were carried out as described above.

In assay [2] the target is T1, Ron (CD136) (UniProt Q04912 25-957, limits assumed).
T1 sequence (looked up): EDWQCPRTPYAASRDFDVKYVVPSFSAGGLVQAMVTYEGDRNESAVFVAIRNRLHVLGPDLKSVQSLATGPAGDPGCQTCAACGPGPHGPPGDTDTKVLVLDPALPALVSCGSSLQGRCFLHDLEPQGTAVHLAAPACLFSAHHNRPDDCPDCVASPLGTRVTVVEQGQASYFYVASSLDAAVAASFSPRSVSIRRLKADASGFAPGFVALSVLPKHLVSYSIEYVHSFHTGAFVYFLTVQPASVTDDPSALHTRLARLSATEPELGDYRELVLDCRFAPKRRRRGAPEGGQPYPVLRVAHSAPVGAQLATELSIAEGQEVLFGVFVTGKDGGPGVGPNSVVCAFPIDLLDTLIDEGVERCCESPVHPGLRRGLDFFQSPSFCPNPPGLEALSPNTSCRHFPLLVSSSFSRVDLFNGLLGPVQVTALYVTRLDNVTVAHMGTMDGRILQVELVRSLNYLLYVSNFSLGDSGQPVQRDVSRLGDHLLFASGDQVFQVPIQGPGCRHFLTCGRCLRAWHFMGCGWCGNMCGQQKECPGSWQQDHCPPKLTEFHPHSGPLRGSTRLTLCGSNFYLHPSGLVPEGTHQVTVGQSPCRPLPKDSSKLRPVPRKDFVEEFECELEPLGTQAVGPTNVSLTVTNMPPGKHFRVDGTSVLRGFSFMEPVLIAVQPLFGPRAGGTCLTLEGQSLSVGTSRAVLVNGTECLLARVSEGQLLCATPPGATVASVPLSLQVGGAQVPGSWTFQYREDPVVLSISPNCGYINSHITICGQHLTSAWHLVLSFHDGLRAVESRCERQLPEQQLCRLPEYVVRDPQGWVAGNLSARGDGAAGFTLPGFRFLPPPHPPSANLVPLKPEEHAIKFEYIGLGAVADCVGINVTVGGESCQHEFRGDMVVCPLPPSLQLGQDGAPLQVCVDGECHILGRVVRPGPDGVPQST
Described as above. As to the method: as §1, §2

Assay [3] has as its target T2, Semaphorin 3a (UniProt Q14563 21-771, limits assumed).
T2 sequence (looked up): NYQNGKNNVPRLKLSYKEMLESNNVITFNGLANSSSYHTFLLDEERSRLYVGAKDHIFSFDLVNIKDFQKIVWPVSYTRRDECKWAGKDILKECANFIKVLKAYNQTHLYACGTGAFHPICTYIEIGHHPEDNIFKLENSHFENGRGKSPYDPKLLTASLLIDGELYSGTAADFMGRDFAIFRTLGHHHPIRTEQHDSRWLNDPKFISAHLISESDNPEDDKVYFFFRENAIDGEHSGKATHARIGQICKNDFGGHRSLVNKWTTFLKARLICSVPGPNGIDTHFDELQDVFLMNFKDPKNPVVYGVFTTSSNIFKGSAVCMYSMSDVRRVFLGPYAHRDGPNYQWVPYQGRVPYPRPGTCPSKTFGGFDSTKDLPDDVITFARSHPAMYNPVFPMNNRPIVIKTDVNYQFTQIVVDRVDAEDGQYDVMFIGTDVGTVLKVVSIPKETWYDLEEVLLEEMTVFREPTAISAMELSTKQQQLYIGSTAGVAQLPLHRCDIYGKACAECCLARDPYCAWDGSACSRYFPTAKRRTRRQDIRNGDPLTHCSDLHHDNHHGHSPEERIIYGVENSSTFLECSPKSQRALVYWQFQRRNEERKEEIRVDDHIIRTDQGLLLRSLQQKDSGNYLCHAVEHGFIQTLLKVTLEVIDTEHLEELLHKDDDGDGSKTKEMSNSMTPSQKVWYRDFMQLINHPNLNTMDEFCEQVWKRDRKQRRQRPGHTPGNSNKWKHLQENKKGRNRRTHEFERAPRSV
The assay is described as above. As to the method: as §1, §2

Assay [4] addresses T3, EGFR and cMET co-expressed on the surface of tumour cell lines (HCC827, HT29, H441, H1975) (UniProt P00533 25-1210; P08581 25-1390).
T3 construct: whole, on cells; Target of the bispecific molecules on cells that carry both receptors; the cell line of each value stands under assay; also called EGFR and c-MET expressing cell line; EGFR and/or cMET expressing cell lines
Put plainly: confocal fluorescence microscopy, AlexaFluor647-labelled antibody pre-bound to cells, T=0.
Protocol: Unincorporated CellTracker™ Blue CMAC dye was removed by two washes with phenol-free RPMI using centrifugation at 300×g for 5 min at 4° C. Cells were then chilled on ice and blocked with the 10 ul FcR Blocking Reagent per 1×10^6 cells for 15 minutes. 2×10⁵ cells were aliquoted into 5 mL round-bottomed tubes and incubated with fluorescent antibodies at a final concentration of 2.5 μg/mL. After removal of unbound fluorescent reagents by centrifugation at 4° C., cells were resuspended in phenol-free RPMI containing 100 mM HEPES, 1 mM sodium pyruvate, and 1% FBS. Cells were transferred into multiple wells of a 384-well imaging plate at a density of 5,000 cells per well, and briefly centrifuged at 2,200 rpm for 2 min at 4° C. prior to image acquisition.

The text below walks through data of patent publication US20250121104A1 (FUSION PHARMACEUTICALS, published 2025).

Sequence of mouse cMET (recombinant) (P16056 25-929 limits assumed): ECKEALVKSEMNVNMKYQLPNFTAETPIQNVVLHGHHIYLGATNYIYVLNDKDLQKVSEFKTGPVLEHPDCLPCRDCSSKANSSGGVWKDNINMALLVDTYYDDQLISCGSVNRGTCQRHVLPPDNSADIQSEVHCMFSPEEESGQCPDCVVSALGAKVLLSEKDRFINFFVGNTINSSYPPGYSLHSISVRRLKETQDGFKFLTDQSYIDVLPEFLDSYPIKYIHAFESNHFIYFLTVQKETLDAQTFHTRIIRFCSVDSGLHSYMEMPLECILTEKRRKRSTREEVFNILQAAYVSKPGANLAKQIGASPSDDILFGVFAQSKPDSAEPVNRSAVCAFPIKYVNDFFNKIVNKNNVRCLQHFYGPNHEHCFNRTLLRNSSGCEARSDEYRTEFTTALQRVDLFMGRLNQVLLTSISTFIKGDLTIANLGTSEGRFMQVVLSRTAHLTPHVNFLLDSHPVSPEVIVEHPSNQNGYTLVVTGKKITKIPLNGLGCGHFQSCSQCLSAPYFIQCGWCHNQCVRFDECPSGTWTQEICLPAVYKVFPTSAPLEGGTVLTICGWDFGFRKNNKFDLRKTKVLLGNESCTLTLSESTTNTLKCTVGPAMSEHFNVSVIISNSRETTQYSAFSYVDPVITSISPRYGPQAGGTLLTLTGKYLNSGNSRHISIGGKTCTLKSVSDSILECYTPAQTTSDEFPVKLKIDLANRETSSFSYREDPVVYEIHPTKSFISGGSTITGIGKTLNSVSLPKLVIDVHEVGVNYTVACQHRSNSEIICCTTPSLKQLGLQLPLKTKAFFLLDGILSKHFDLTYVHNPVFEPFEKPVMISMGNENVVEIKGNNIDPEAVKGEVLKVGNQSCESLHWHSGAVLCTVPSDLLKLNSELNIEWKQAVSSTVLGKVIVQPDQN

B1: RAA22/B09-57 DuetMab (bispecific antibody, V domains shown)
VH 1: QVQLVQSGAEVKKPGSSVKVSCKASGGTFSDNDFSWVRQAPGQGLEWMGAIVAVFRTETYAQKFQDRVKITADISTRTTYMELSSLRSEDTAVYYCARRLMSAISGPGAPLLMWGQGTLVTVSS
VL 1: QSALTQPRSVSGSPGQSVTISCTGTSSDVGGYNYVSWYQQHPGKAPKLMIYDVSKRPSGVPDRFSGSKSGNTASLTISGLQAEDEADYYCSSYTSSDTLEIFGGGTKLTVL
VH 2: QVQLVQSGAEVKKPGASVKVSCKASGYTFTDYYIHWVRQATGQGLEWMGWMNPNSGNTGYAQKFQGRVTMTRDTSISTAYMELSSLRSEDTAVYYCARGQGYTHSWGQGTMVTVSS
VL 2: DIQMTQSPSTLSASVGDRVTITCRASEGIYHWLAWYQQKPGKAPKLLIYKASSLASGVPSRFSGSGSGTEFTLTISSLQPDDFATYYCQQYSNYPPTFGGGTKLEIK
notes: RAA22 VH on Hole heavy chain (T366S, L368A, Y407V, Y349C) with lambda CL; cysteine insertion after S239; also called RAA22/B09 DuetMab; RAA22/B09 bispecific mAb
In the case of B1, the binding result in assay [1], in assay [2] and in assay [3] was “no binding (tested: 10 µg/mL)” each time. For the same molecule, in assay [4], the “fold binding on HCC827 cells over H1975 cells” value stood at 8.9 fold.
